From the nanobody polyreactivity screen of Harvey et al. (2022)

Assay: yeast display, Sf9 membrane polyspecificity reagent, FACS + sequencing; frameworks hold sequencing errors
Outline: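 After 36–48 hours of galactose induction, yeast (Saccharomyces cerevisiae BJ5465) displaying a synthetic nanobody library were stained at 4 °C for 1 hour with 10% biotinylated, detergent-solubilized Sf9 membrane reagent. Streptavidin microbeads enriched the stained cells before FACS sorting into low and high (top ~1%) gates on anti-HA and streptavidin fluorescence. Each clone's polyreactivity label reflects its gate of origin.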

Sequence	polyreactivity (PSR sort gate)
QVQLVESGGGLVKAGGSLRLSCAASGFTLSRYTKGWYRQAPGKEWELVAAISWSGGSTYYADSVKGRFTISRDNAKNTVYLQMNSLKPEDSAVYYCAARYHYYGLYTSGDYYWGQGTQVTVSS	high polyreactivity
QVQLVESGGGLVKAGGSLRLSCAASGIIMSYYVMGWYIQAPGKERELVAAISLRGGTTYYADSEKGRFTISRDNAKNTVYLQKNSLKPEDTAVYYCAAQRPGFGYEYDYWGQGTQVTVSS	high polyreactivity
QVQLVESGGGLVKAGGSLRLSCAASGITCTKNAMGWYRQAPGKERELVAAISTSGGSTYYADSVKGRFTISRDTAKNTVYLQMTSLKPEDTAVYYCAARAVIRGGRYFYWGQGTLVTVSS	high polyreactivity
QVQLVESGGGLVKAGGSLRLSCAASGITFRKYAMGWYRQAPGKERELVAAITAGGGRTFYADSVKGRFTISRDNAKNTVYLQMNSLKPEDTAVYYCNADLGIGYDYWGQGTQVTVSS	high polyreactivity
QVQLVESGGGLVKAGGSLRLSCAASGLILYRYVMGWYRQAPGKERELVAAISSSGGRTYYADSVKGRFTISRDIAKNTVYLQMNSMKPEDTAVYYCAKRRSDARRGYDYWGQGTQVTVSS	high polyreactivity
QVQLVESGGGLVKAGGSLRLSCAASGRIDSTYAMGWSRQAPGKERDLVAAINKIGGSTYYADSVKGRFTISRDNEKNTVYLQMNSLKPEDTAVYYCAADAPYYPVRRYYYWGQGTQVTVSA	low polyreactivity
QVQLVESGGGLVKAGGSLRLSCAASGRIFNWYVMGWSRQAPGKERELVAAISWGSGNTYYADSVKGRFTISRDNAKNTVYLQMNSLKPEDTAVYYCNKVRSYRSWRGKYDYWGQGTQVTVSS	high polyreactivity
QVQLVESGGGLVKAGGSLRLSCAASGRIFYNFSMGWSRQAHGKERELVAAISGSGGSTYYADSVKGRFTISRDNAKNTVYLQMNSLKPEDTAVYYCSTSGPQYYSRNFDYWGQGTQVTVSS	low polyreactivity
QVQLVESGGGLVKAGGSLRLSCAASGRNFNYYAMGWYTQAPGKERELVAAIRSGGSTYYADSVKGRFTISRDNAKYTVYFQMNSLKPEDTAVYYCAKSMSSDAYDSWGQGTKVTVSS	low polyreactivity
QVQLVESGGGLVKAGGSLRLSCAASGSIFNRYAMGWYRPAPGKEREFGARISKRGGGTYYADSVKGRFTISRDNAKNPVYLQMNRLKPEDTAVYYCNAGVPSAMDYCGQGTQVTVSS	high polyreactivity
QVQLVESGGGLVKAGGSLRLSCAASGSTFGLYVMGWYRQAPGKERELVAAINRIGSRTYYADSVKGRFTISRDNAKNTVYLQMNSLKPEDTAVYYCAADYDYTSPGDDYWGQGTQVTVSS	high polyreactivity
QVQLVESGGGLVKAGGSLRLSCAASGSTFQWYAMGWYRQAPGKERELVAAINKSGGTTYYADSVKGRFTISRDNAKNSVYLQMNSLKPEDTAVYYCATDNPVVYQPGNMDYWGQGTQVTVSS	low polyreactivity
QVQLVESGGGLVKAGGSLRLSCAASGSTFRPYAMGWYRPAPGKERELVAAITSRGGSTYYADSVKGRFTISRDNAKNTVSLQMNSLKPEDTAVYYCAASYEVVASSYRYYYWGQGTQVTVSS	high polyreactivity
QVQLVESGGGLVKAGGSLRLSCAASGSTSPFNAMGWYRQAPGKERELVAAITSGGSTHYADSVKGRFTISRDNAKNTVYLPMNRLKPEDSAVYYCAAEPVAYYGSSYGYWGQGTQVNVSS	low polyreactivity
QVQLVESGGGLVKAGGSLRLTCAASGRIFGPYVMGWYRQAPGKERELVAAISTSGTSTYYADSVKGRFTISRDNAKNTVYLQMNSLKPEDTAVYYCAKRSGARHRLMDYWGQGTQVTVSS	low polyreactivity
QVQLVESGGGLVKAGGSLRLTCAASGRTFGDNAMVWYRQATGKEMELVAAIRWGGGSTYYADSVKGRFTISRDNAKNTVFLQMNRLKPEDTAVYYCAKDDWDIALVHGEYDYWGQGTQVTVSS	low polyreactivity
QVQLVESGGGLVKAGSSLRLSCAASGSIFLYNAMGWYRQAPGKERELVAVINGRGGTYYADSVKGRFTISRDNAKNTVYLQMNSLKPEDNSVYYCATGYPPSAWYDSVRFEDRDSWGQCTQVTVSS	low polyreactivity
QVQLVESGGGLVKAVGSLRLSCAASGINLIRYVMGLYRQAPGKERELVAAISGSGGRTYYADSVKGRFTISRDNAKTTVDLQMNSLKPEDTAVYYCAAVSFRTTHGEYDYWGQGTQVTVSS	low polyreactivity
QVQLVESGGGLVKSGGSLRLSCAASGGTFKPNVMGWYIQAPGKERELVAAITSGGSTYYADSVKGRFTISRDNAKNTVYLQMNSLKPEDTAVYYCAASSLRRYGYNYWGQVTQVTVSS	high polyreactivity
QVQLVESGGGLVLAGGSLRLSCAASEFIFARNGMGWYIQAPGKERELVAAITKSGSTYADSVKGRFTISRDNAKNTVYLQMNSLKPEDTAVYYCNKDPGNVSSFTGGGYWGQGTQVTVSS	low polyreactivity
QVQLVESGGGLVLAGGSLRLSCAASGGIYTTYAMGWYREAPGKERELVAAISRSGGSTYYADSVKGRFTISRDNAKNTVYLQMNSLKPDDTAVYYCAADQYMCRAWRGRVYYWGQGTQVTVSS	high polyreactivity
